Test results from article PMC5430821.

Target: rat synaptotagmin 2 fused to the DCTM exosome-sorting peptide, displayed on exosomes (rat) (UniProt P29101)
Assay: SPR; […] (1 µM); […], single-cycle kinetics, 1:1 model, […]; 25 °C, HBS pH 7.4, 150 mM NaCl

Sequence of UniProt P29101 (P29101 whole entry, the tested form may be a part): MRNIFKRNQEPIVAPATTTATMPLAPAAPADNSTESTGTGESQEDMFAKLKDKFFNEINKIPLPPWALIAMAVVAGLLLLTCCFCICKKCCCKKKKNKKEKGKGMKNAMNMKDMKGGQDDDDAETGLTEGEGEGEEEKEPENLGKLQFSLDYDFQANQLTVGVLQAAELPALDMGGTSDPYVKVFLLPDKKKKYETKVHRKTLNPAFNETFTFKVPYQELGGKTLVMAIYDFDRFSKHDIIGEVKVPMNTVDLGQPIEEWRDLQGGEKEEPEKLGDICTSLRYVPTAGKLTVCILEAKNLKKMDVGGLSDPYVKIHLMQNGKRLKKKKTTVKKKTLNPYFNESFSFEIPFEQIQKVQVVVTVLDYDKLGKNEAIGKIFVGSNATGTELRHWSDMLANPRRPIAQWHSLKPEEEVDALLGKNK

Substance | Kd | koff | kon
BoNT/B (B1 Okra strain) neurotoxin with non-toxic accessory proteins (complex) | 1.4 nM | 0.00041 s⁻¹ | 310000 M⁻¹ s⁻¹
BoNT/B holotoxin (B1), pure botulinum neurotoxin type B (natural protein) | 0.6 nM | 0.00013 s⁻¹ | 230000 M⁻¹ s⁻¹
